Source: US20090062512A1, “Comparative ligand mapping from MHC class I positive cells” (priority 2000, published 2009)

Key:
Assay type in all cases: cell-based
[1] = biological target: A*0201 class I MHC molecules in cells infected with the West Nile virus (Homo sapiens, UniProt P04439, D140Y/D185E/D98H/E176V/E277Q/G131W/G231S/I119V/I121R/I166T/I218V/L300P/L318F/N151K/N90K/P208A/P217A/Q86G/Q94H/R138H/R169H/T345S)
[2] = biological target: sHLA-A*0201 from MCF-7, MDA-MB-231, BT-20 and MCF10A (Homo sapiens, UniProt P04439, D140Y/D185E/D98H/E176V/E277Q/G131W/G231S/I119V/I121R/I166T/I218V/L300P/L318F/N151K/N90K/P208A/P217A/Q86G/Q94H/R138H/R169H/T345S); experiment: MS comparative analysis of sHLA-A*0201 peptides, breast cancer cell lines vs nontumorigenic MCF10A; details: for FOLD INCREASE BT-20 over MCF10A / FOLD INCREASE MCF-7 over MCF10A / FOLD INCREASE MDA-MB-231 over MCF10A: peptide epitope presented on sHLA-A*0201; for FOLD INCREASE BT-20 over MCF10A: BT-20 vs nontumorigenic MCF10A; for FOLD INCREASE MCF-7 over MCF10A: MCF-7 vs nontumorigenic MCF10A; for FOLD INCREASE MDA-MB-231 over MCF10A: MDA-MB-231 vs nontumorigenic MCF10A
[3] = biological target: A*0201 class I MHC molecules in cells infected with the PR8 strain of influenza A virus (Homo sapiens, UniProt P04439, D140Y/D185E/D98H/E176V/E277Q/G131W/G231S/I119V/I121R/I166T/I218V/L300P/L318F/N151K/N90K/P208A/P217A/Q86G/Q94H/R138H/R169H/T345S)

Sequence | Fold Increase [1] | also measured
ATWAENIQV | Unique | 
FLKEPALNEA | Unique | 
GLIEKNIEL (listed as Homo sapiens) |  | presentation by HLA A*0201 of tumorigenic vs nontumorigenic cell lines ([2]; MCF-7, MDA-MB-231, BT-20 vs MCF10A): shared by all 4 cell lines; Fold Increase [3]: 1.58
KIVVVTAGV | Unique | 
LDQSVTHL | Unique | 
LLDVPTAA | Unique | 
NLMHISYE | Unique | 
RLDDDGNFQL | Unique | 
SLFGQRIEN | Unique | 
SLLEKSLGL (listed as Homo sapiens) |  | FOLD INCREASE BT-20 over MCF10A [2]: None; FOLD INCREASE MCF-7 over MCF10A [2]: 7.9; FOLD INCREASE MDA-MB-231 over MCF10A [2]: 7.4; Fold Increase [3]: 1.64
SVGGVFTSV | Unique | 
TLYEAVREV |  | FOLD INCREASE BT-20 over MCF10A [2]: 7.9; FOLD INCREASE MCF-7 over MCF10A [2]: None; FOLD INCREASE MDA-MB-231 over MCF10A [2]: 2.3
VLDELKVA | Unique | 
YTMDGEYRL | Unique | 
